Experiments:
[1] = system: HeLa Kyoto; assay: solubility in G1/S (NP-40 vs SDS abundance) (log2 ratio); higher = more soluble; conditions: cell cycle stage: G1/S
[2] = system: HeLa Kyoto; assay: solubility change mitosis vs G1/S (difference of NP-40 vs SDS log2 ratios) (log2 ratio difference); higher = more soluble in mitosis
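Throughout, for solubility change mitosis vs G1/S (difference of NP-40 vs SDS log2 ratios): synchronized HeLa Kyoto cells (double thymidine block for G1/S, nocodazole release for mitosis), protein amounts in NP-40 versus SDS lysates quantified by mass spectrometry, three biological replicates.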
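Throughout, for solubility in G1/S (NP-40 vs SDS abundance): HeLa Kyoto cells arrested at G1/S by double thymidine block, proteins quantified by TMT10plex mass spectrometry in mild NP-40 versus SDS extracts, three biological replicates.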

Row | Sequence | solubility in G1/S (log2) [1] | solubility change mitosis (log2) [2]
1 | MPVSTSLHQDGSQERPVSLTSTTSSSGSSCDSRSAMEEPSSSEAPAKNGAGSLRSRHLPNSNNNSSSWLNVKGPLSPFNSRAAAGPAHHKLSYLGRVVREIVETERMYVQDLRSIVEDYLLKIIDTPGLLKPEQVSALFGNIENIYALNSQLLRDLDSCNSDPVAVASCFVERSQEFDIYTQYCNNYPNSVAALTECMRDKQQAKFFRDRQELLQHSLPLGSYLLKPVQRILKYHLLLQEIAKHFDEEEDGFEVVEDAIDTMTCVAWYINDMKRRHEHAVRLQEIQSLLINWKGPDLTTYGELVLEGTFRVHRVRNERTFFLFDKTLLITKKRGDHFVYKGNIPCSSLMLIESTRDSLCFTVTHYKHSKQQYSIQAKTVEEKRNWTHHIKRLILENHHATIPQKAKEAILEMDSYYPNRYRCSPERLKKAWSSQDEVSTNVRQGRRQSEPTKHLLRQLNEKARAAGMKGKGRRESESSRSSRRPSGRSPTSTEKRMSFESISSLPEVEPDPEAGSEQEVFSAVEGPSAEETPSDTESPEVLETQLDAHQGLLGMDPPGDMVDFVAAESTEDLKALSSEEEEEMGGAAQEPESLLPPSVLDQASVIAERFVSSFSRRSSVAQEDSKSSGFGSPRLVSRSSSVLSLEGSEKGLARHGSATDSLSCQLSPEVDISVGVATEDSPSVNGMEPPSPGCPVEPDRSSCKKKESALSTRDRLLLDKIKSYYENAEHHDAGFSVRRRESLSYIPKGLVRNSISRFNSLPRPDPEPVPPVGSKRQVGSRPTSWALFELPGPSQAVKGDPPPISDAEFRPSSEIVKIWEGMESSGGSPGKGPGQGQANGFDLHEPLFILEEHELGAITEESATASPESSSPTEGRSPAHLARELKELVKELSSSTQGELVAPLHPRIVQLSHVMDSHVSERVKNKVYQLARQYSLRIKSNKPVMARPPLQWEKVAPERDGKSPTVPCLQEEAGEPLGGKGKRKPVLSLFDYEQLMAQEHSPPKPSSAGEMSPQRFFFNPSAVSQRTTSPGGRPSARSPLSPTETFSWPDVRELCSKYASRDEARRAGGGRPRGPPVNRSHSVPENMVEPPLSGRVGRCRSLSTKRGRGGGEAAQSPGPLPQSKPDGGETLYVTADLTLEDNRRVIVMEKGPLPSPTAGLEESSGQGPSSPVALLGQVQDFQQSAECQPKEEGSRDPADPSQQGRVRNLREKFQALNSVG [PLEKHG3] | -0.79 | -0.239
2 | MQPGSSRCEEETPSLLWGLDPVFLAFAKLYIRDILDMKESRQVPGVFLYNGHPIKQVDVLGTVIGVRERDAFYSYGVDDSTGVINCICWKKLNTESVSAAPSAARELSLTSQLKKLQETIEQKTKIEIGDTIRVRGSIRTYREEREIHATTYYKVDDPVWNIQIARMLELPTIYRKVYDQPFHSSALEKEEALSNPGALDLPSLTSLLSEKAKEFLMENRVQSFYQQELEMVESLLSLANQPVIHSASSDQVNFKKDTTSKAIHSIFKNAIQLLQEKGLVFQKDDGFDNLYYVTREDKDLHRKIHRIIQQDCQKPNHMEKGCHFLHILACARLSIRPGLSEAVLQQVLELLEDQSDIVSTMEHYYTAF [OBFC1] | 0.0155 | -0.0863
3 | MQPPPRKVKVTQELKNIQVEQMTKLQAKHQAECDLLEDMRTFSQKKAAIEREYAQGMQKLASQYLKRDWPGVKADDRNDYRSMYPVWKSFLEGTMQVAQSRMNICENYKNFISEPARTVRSLKEQQLKRCVDQLTKIQTELQETVKDLAKGKKKYFETEQMAHAVREKADIEAKSKLSLFQSRISLQKASVKLKARRSECNSKATHARNDYLLTLAAANAHQDRYYQTDLVNIMKALDGNVYDHLKDYLIAFSRTELETCQAVQNTFQFLLENSSKVVRDYNLQLFLQENAVFHKPQPFQFQPCDSDTSRQLESETGTTEEHSLNKEARKWATRVAREHKNIVHQQRVLNDLECHGAAVSEQSRAELEQKIDEARENIRKAEIIKLKAEARLDLLKQIGVSVDTWLKSAMNQVMEELENERWARPPAVTSNGTLHSLNADTEREEGEEFEDNMDVFDDSSSSPSGTLRNYPLTCKVVYSYKASQPDELTIEEHEVLEVIEDGDMEDWVKARNKVGQVGYVPEKYLQFPTSNSLLSMLQSLAALDSRSHTSSNSTEAELVSGSLNGDASVCFVKALYDYEGQTDDELSFPEGAIIRILNKENQDDDGFWEGEFNGRIGVFPSVLVEELSASENGDTPWMREIQISPSPKPHASLPPLPLYDQPPSSPYPSPDKRSSLYFPRSPSANEKSLHAESPGFSQASRHTPETSYGKLRPVRAAPPPPTQNHRRPAEKIEDVEITLV [FCHSD2] | 0.194 | -0.00785
4 | MQQESERCRVRARRPDMALYVPKARRGAVLLKTGDEEESCGSPNSVVKEKQKESSLSQKEVFKDKPEARRLNINPDRKEHNCREEKKSSTKLRMDTCLQKTNRVCSKRGTTESKEVLSQGQQQGAPNAGVITNAPLQRHFKPKKVECLEVETTDVTGHERILLSQACLEISEAQVPSKPFQNVEFCDFSRHEPDGEAFEDKDLEGRIETDTKVLEILYEFPRVFSSVMKPENMIVPIKLSSDSEIVQQSMQTSDGILNPSSGGITTTSVPGSPDGVFDQTCVDFEVESVGGIANSTGFILDQKDTDSIPATMGHISLSESTNDTVSPVMIRECEKNDSTADELHVKHEPPDTAVLAHETHRDSGFKNVGDITNKACMMDTTGMSCSDHVTVDSPYVVAVRIADETSINTRSFSKFVGMSADATPLHVARSGNDTEDFSNPSACSDIYGESISSHFTESTGKLIESLSDCASSLPIKKIAGSNYNTFLDSELSMLNGTKVLSDSAVGIDLGSTGDTTEALHELRTAEEFKTEEQDDSGSIEFGVSFPDRESSSMETSIEPKATETSHTEGITAIEESWESMFNDDGDCLDPRLLQEGILMHIKPENHCSKLSGNTKSRESIQEPRSDYYNHEVPDIDLSDCEFPHVIEIYDFPQEFHTEDLLRVFCSYQKKGFDIKWVDDTHALGVFSSPITARDALGIKHTMVKIRPLSQATRAAKAKARAYAEFLQPAKERPETSAALARRLVISALGVRSKQSKTEREAELKKLQEARERKRLEAKQREDIWEGRDQSTV [R3HCC1L] | -0.118 | 0.112
5 | MQREEKQLEASLDALLSQVADLKNSLGSFICKLENEYGRLTWPSVLDSFALLSGQLNTLNKVLKHEKTPLFRNQVIIPLVLSPDRDEDLMRQTEGRVPVFSHEVVPDHLRTKPDPEVEEQEKQLTTDAARIGADAAQKQIQSLNKMCSNLLEKISKEERESESGGLRPNKQTFNPTDTNALVAAVAFGKGLSNWRPSGSSGPGQAGQPGAGTILAGTSGLQQVQMAGAPSQQQPMLSGVQMAQAGQPGKMPSGIKTNIKSASMHPYQR [MED8] | 0.142 | 0.105
6 | MQSESGIVPDFEVGEEFHEEPKTYYELKSQPLKSSSSAEHPGASKPPISSSSMTSRILLRQQLMREQMQEQERREQQQKLQAAQFMQQRVPVSQTPAINVSVPTTLPSATQVPMEVLKVQTHLENPTKYHIQQAQRQQVKQYLSTTLANKHANQVLSLPCPNQPGDHVMPPVPGSSAPNSPMAMLTLNSNCEKEGFYKFEEQNRAESECPGMNTHSRASCMQMDDVIDDIISLESSYNEEILGLMDPALQMANTLPVSGNLIDLYGNQGLPPPGLTISNSCPANLPNIKRELTACIFPTESEARALAKERQKKDNHNLIERRRRFNINDRIKELGTLIPKSNDPDMRWNKGTILKASVDYIRKLQREQQRAKELENRQKKLEHANRHLLLRIQELEMQARAHGLSLIPSTGLCSPDLVNRIIKQEPVLENCSQDLLQHHADLTCTTTLDLTDGTITFNNNLGTGTEANQAYSVPTKMGSKLEDILMDDTLSPVGVTDPLLSSVSPGASKTSSRRSSMSMEETEHTC [MITF] | 0.326 | 0.021
7 | MRAPIPEPKPGDLIEIFRPFYRHWAIYVGDGYVVHLAPPSEVAGAGAASVMSALTDKAIVKKELLYDVAGSDKYQVNNKHDDKYSPLPCSKIIQRAEELVGQEVLYKLTSENCEHFVNELRYGVARSDQVRDVIIAASVAGMGLAAMSLIGVMFSRNKRQKQ [PLA2G16] | 0.0787 | -0.137
8 | MRDRLPDLTACRKNDDGDTVVVVEKDHFMDDFFHQVEEIRNSIDKITQYVEEVKKNHSIILSAPNPEGKIKEELEDLNKEIKKTANKIRAKLKAIEQSFDQDESGNRTSVDLRIRRTQHSVLSRKFVEAMAEYNEAQTLFRERSKGRIQRQLEITGRTTTDDELEEMLESGKPSIFTSDIISDSQITRQALNEIESRHKDIMKLETSIRELHEMFMDMAMFVETQGEMINNIERNVMNATDYVEHAKEETKKAIKYQSKARRKKWIIIAVSVVLVAIIALIIGLSVGK [STX2] | 0.137 | 0.0333
9 | MRDSTGAGNSLVHKRSPLRRNQKTPTSLTKLSLQDGHKAKKPACKFEEGQDVLARWSDGLFYLGTIKKINILKQSCFIIFEDSSKSWVLWKDIQTGATGSGEMVCTICQEEYSEAPNEMVICDKCGQGYHQLCHTPHIDSSVIDSDEKWLCRQCVFATTTKRGGALKKGPNAKALQVMKQTLPYSVADLEWDAGHKTNVQQCYCYCGGPGDWYLKMLQCCKCKQWFHEACVQCLQKPMLFGDRFYTFICSVCSSGPEYLKRLPLQWVDIAHLCLYNLSVIHKKKYFDSELELMTYINENWDRLHPGELADTPKSERYEHVLEALNDYKTMFMSGKEIKKKKHLFGLRIRVPPVPPNVAFKAEKEPEGTSHEFKIKGRKASKPISDSREVSNGIEKKGKKKSVGRPPGPYTRKMIQKTAEPLLDKESISENPTLDLPCSIGRTEGTAHSSNTSDVDFTGASSAKETTSSSISRHYGLSDSRKRTRTGRSWPAAIPHLRRRRGRLPRRALQTQNSEIVKDDEGKEDYQFDELNTEILNNLADQELQLNHLKNSITSYFGAAGRIACGEKYRVLARRVTLDGKVQYLVEWEGATAS [MTF2] | -1.31 | 0.618
10 | MRLRNGTFLTLLLFCLCAFLSLSWYAALSGQKGDVVDVYQREFLALRDRLHAAEQESLKRSKELNLVLDEIKRAVSERQALRDGDGNRTWGRLTEDPRLKPWNGSHRHVLHLPTVFHHLPHLLAKESSLQPAVRVGQGRTGVSVVMGIPSVRREVHSYLTDTLHSLISELSPQEKEDSVIVVLIAETDSQYTSAVTENIKALFPTEIHSGLLEVISPSPHFYPDFSRLRESFGDPKERVRWRTKQNLDYCFLMMYAQSKGIYYVQLEDDIVAKPNYLSTMKNFALQQPSEDWMILEFSQLGFIGKMFKSLDLSLIVEFILMFYRDKPIDWLLDHILWVKVCNPEKDAKHCDRQKANLRIRFKPSLFQHVGTHSSLAGKIQKLKDKDFGKQALRKEHVNPPAEVSTSLKTYQHFTLEKAYLREDFFWAFTPAAGDFIRFRFFQPLRLERFFFRSGNIEHPEDKLFNTSVEVLPFDNPQSDKEALQEGRTATLRYPRSPDGYLQIGSFYKGVAEGEVDPAFGPLEALRLSIQTDSPVWVILSEIFLKKAD [MGAT4B] | 0.0108 | -0.107

Reference: the supplement of paper PMC5998384
